Values of other authors as cited in publication PMC10653114.

Columns and labels:
Asp39 = Asp39 (UniProt position 413, PVDGWDLTFSF); conditions: 298 K; Conc. 0.10 (unit not given; K+/Cl–)
Lys94 = Lys94 (UniProt position 114, NGFSNKCSSL-); assay: not stated (the title of ref 83 mentions NMR pH-dependent chemical shifts); conditions: 313 K; Conc. 0.0 (unit not given; Na+/Cl–)
Asp30 = Asp30 (UniProt position 50, NQCSTDSGYSM); assay: as above; conditions: 313 K; Conc. 0.0 (unit not given; Na+/Cl–)
Asp21 [1] = target: Asp21 (UniProt position 41, VSILSDASFNQ); assay: as above; conditions: 313 K; Conc. 0.0 (unit not given; Na+/Cl–)
Lys61 = Lys61 (UniProt position 81, CNTMIKKIVTL); assay: as above; conditions: 313 K; Conc. 0.0 (unit not given; Na+/Cl–)
Asp72 = Asp72 (UniProt position 92, NPPNCDLTVPT); assay: as above; conditions: 313 K; Conc. 0.0 (unit not given; Na+/Cl–)
Asp43 = Asp43 (UniProt position 417, WTLTFDFPSGQ); conditions: 298 K; Conc. 0.10 (unit not given; K+/Cl–)
Asp33 = Asp33 (UniProt position 33, FPYSQDGVVFQ); conditions: 295 K; Conc. 0.10 (unit not given; Na+/Cl–)
Glu74 = Glu74 (UniProt position 74, RIITGEATQED); conditions: 295 K; Conc. 0.10 (unit not given; Na+/Cl–)
Glu78 = Glu78 (UniProt position 78, GEATQEDYYTG); conditions: 295 K; Conc. 0.10 (unit not given; Na+/Cl–)
Glu54 = Glu54 (UniProt position 54, YGYYHEYTVIT); conditions: 295 K; Conc. 0.10 (unit not given; Na+/Cl–)
Asp84 = Asp84 (UniProt position 84, DYYTGDHYATF); conditions: 295 K; Conc. 0.10 (unit not given; Na+/Cl–)
Glu41 = Glu41 (UniProt position 41, VFQNRESVLPT); conditions: 295 K; Conc. 0.10 (unit not given; Na+/Cl–)
Asp17 = Asp17 (UniProt position 17, PPEATDTLNLI); conditions: 295 K; Conc. 0.10 (unit not given; Na+/Cl–)
Asp79 = Asp79 (UniProt position 79, EATQEDYYTGD); conditions: 295 K; Conc. 0.10 (unit not given; Na+/Cl–)
Glu14 = Glu14 (UniProt position 14, SALPPEATDTL); conditions: 295 K; Conc. 0.10 (unit not given; Na+/Cl–)
Asp93 = Asp93 (UniProt position 93, TFSLIDQTC--); conditions: 295 K; Conc. 0.10 (unit not given; Na+/Cl–)
Asp25 = Asp25 (UniProt position 25, NLIASDGPFPY); conditions: 295 K; Conc. 0.10 (unit not given; Na+/Cl–)
Glu122 = Glu122 (UniProt position 204, GNNTHEQLLRK); conditions: 298 K; Conc. 0.10 (unit not given; K+/Cl–)
Asp19 = Asp19 (UniProt position 101, LIKAIDGDTVK); conditions: 298 K; Conc. 0.10 (unit not given; K+/Cl–)
Glu43 = Glu43 (UniProt position 125, LVDTPETKHPK); conditions: 298 K; Conc. 0.10 (unit not given; K+/Cl–)
Glu73 = Glu73 (UniProt position 155, NAKKIEVEFDK); conditions: 298 K; Conc. 0.10 (unit not given; K+/Cl–)
Glu142 = Glu142 (UniProt position 224, LNIWSEDNADS); conditions: 298 K; Conc. 0.10 (unit not given; K+/Cl–)
Asp95 = Asp95 (UniProt position 177, AYIYADGKMVN); conditions: 298 K; Conc. 0.10 (unit not given; K+/Cl–)
Asp40 = Asp40 (UniProt position 122, RLLLVDTPETK); conditions: 298 K; Conc. 0.10 (unit not given; K+/Cl–)
Asp143 = Asp143 (UniProt position 225, NIWSEDNADSG); conditions: 298 K; Conc. 0.10 (unit not given; K+/Cl–)
Glu135 = Glu135 (UniProt position 217, AQAKKEKLNIW); conditions: 298 K; Conc. 0.10 (unit not given; K+/Cl–)
Asp77 = Asp77 (UniProt position 159, IEVEFDKGQRT); conditions: 298 K; Conc. 0.10 (unit not given; K+/Cl–)
Glu129 = Glu129 (UniProt position 211, LLRKAEAQAKK); conditions: 298 K; Conc. 0.10 (unit not given; K+/Cl–)
Glu52 = Glu52 (UniProt position 134, PKKFNEKYGPE); conditions: 298 K; Conc. 0.10 (unit not given; K+/Cl–)
Glu57 = Glu57 (UniProt position 139, EKYGPEASAFT); conditions: 298 K; Conc. 0.10 (unit not given; K+/Cl–)
Asp146 = Asp146 (UniProt position 228, SEDNADSGQ--); conditions: 298 K; Conc. 0.10 (unit not given; K+/Cl–)
Asp83 = Asp83 (UniProt position 165, KGQRTDKYGRG); conditions: 298 K; Conc. 0.10 (unit not given; K+/Cl–)
Asp21 [2] = target: Asp21 (UniProt position 103, KAIDGDTVKLM); conditions: 298 K; Conc. 0.10 (unit not given; K+/Cl–)
Glu10 = Glu10 (UniProt position 92, KKLHKEPATLI); conditions: 298 K; Conc. 0.10 (unit not given; K+/Cl–)
Glu75 = Glu75 (UniProt position 157, KKIEVEFDKGQ); conditions: 298 K; Conc. 0.10 (unit not given; K+/Cl–)
Glu67 = Glu67 (UniProt position 149, TKKMVENAKKI); conditions: 298 K; Conc. 0.10 (unit not given; K+/Cl–)
Glu101 = Glu101 (UniProt position 183, GKMVNEALVRQ); conditions: 298 K; Conc. 0.10 (unit not given; K+/Cl–)
Lys33 = Lys33 (UniProt position 51, WVCAAKFESNF); assay: NMR (per the title of cited ref 36); conditions: 300 K; Conc. 0.10 (unit not given; Na+/Cl–)
Asp18 = Asp18 (UniProt position 36, KRHGLDNYRGY); assay: NMR (per the title of cited ref 36); conditions: 300 K; Conc. 0.10 (unit not given; Na+/Cl–)
Glu35 = Glu35 (UniProt position 53, CAAKFESNFNT); assay: NMR (per the title of cited ref 36); conditions: 300 K; Conc. 0.10 (unit not given; Na+/Cl–)
Asp52 = Asp52 (UniProt position 70, TDGSTDYGILQ); assay: NMR (per the title of cited ref 36); conditions: 300 K; Conc. 0.10 (unit not given; Na+/Cl–)
Lys116 = Lys116 (UniProt position 134, WRNRCKGTDVQ); assay: NMR (per the title of cited ref 36); conditions: 300 K; Conc. 0.10 (unit not given; Na+/Cl–)
Lys96 = Lys96 (UniProt position 114, SVNCAKKIVSD); assay: NMR (per the title of cited ref 36); conditions: 300 K; Conc. 0.10 (unit not given; Na+/Cl–)
Asp48 = Asp48 (UniProt position 66, TNRNTDGSTDY); assay: NMR (per the title of cited ref 36); conditions: 300 K; Conc. 0.10 (unit not given; Na+/Cl–)
Asp66 = Asp66 (UniProt position 84, RWWCNDGRTPG); assay: NMR (per the title of cited ref 36); conditions: 300 K; Conc. 0.10 (unit not given; Na+/Cl–)
Lys97 = Lys97 (UniProt position 115, VNCAKKIVSDG); assay: NMR (per the title of cited ref 36); conditions: 300 K; Conc. 0.10 (unit not given; Na+/Cl–)
Asp87 = Asp87 (UniProt position 105, ALLSSDITASV); assay: NMR (per the title of cited ref 36); conditions: 300 K; Conc. 0.10 (unit not given; Na+/Cl–)
Lys13 = Lys13 (UniProt position 31, LAAAMKRHGLD); assay: NMR (per the title of cited ref 36); conditions: 300 K; Conc. 0.10 (unit not given; Na+/Cl–)
Asp101 = Asp101 (UniProt position 119, KKIVSDGNGMN); assay: NMR (per the title of cited ref 36); conditions: 300 K; Conc. 0.10 (unit not given; Na+/Cl–)
Asp119 = Asp119 (UniProt position 137, RCKGTDVQAWI); assay: NMR (per the title of cited ref 36); conditions: 300 K; Conc. 0.10 (unit not given; Na+/Cl–)
Glu7 = Glu7 (UniProt position 25, VFGRCELAAAM); assay: NMR (per the title of cited ref 36); conditions: 300 K; Conc. 0.10 (unit not given; Na+/Cl–)

## Highly charge-depleted protein (PDB 6QFS), T39D variant (Cellulomonas fimi (parent domain; not stated in the article); T39D (on the 6QFS charge-depleted background; background substitutions not stated))
Asp39
  pKa: 5

## Beta-cryptogein (beta-elicitin) (Phytophthora cryptogea)
Lys94
  pKa: 9.4
Asp30
  pKa: 2.51 ± 0.09
Asp21 [1]
  pKa: 2.49 ± 0.05
Lys61
  pKa: 10.1
Asp72
  pKa: 2.61 ± 0.15

## Highly charge-depleted protein (PDB 6QFS), S43D/T66H variant (Cellulomonas fimi (parent domain; not stated in the article); S43D;T66H (on the 6QFS charge-depleted background; background substitutions not stated))
Asp43
  pKa: 4.32 ± 0.02

## Ribonuclease Sa (Streptomyces aureofaciens)
Asp33
  pKa: 2.39 ± 0.07
Glu74
  pKa: 3.47 ± 0.07
Glu78
  pKa: 3.13 ± 0.07
Glu54
  pKa: 3.42 ± 0.07
Asp84
  pKa: 3.01 ± 0.07
Glu41
  pKa: 4.14 ± 0.07
Asp17
  pKa: 3.72 ± 0.07
Asp79
  pKa: 7.37 ± 0.07
Glu14
  pKa: 5.02 ± 0.07
Asp93
  pKa: 3.09 ± 0.07
Asp25
  pKa: 4.87 ± 0.07

## Staphylococcal nuclease, Delta+PHS variant (Staphylococcus aureus; G50F;V51N;P117G;H124L;S128A;del44-49)
Glu122
  pKa: 3.89 ± 0.09
Asp19
  pKa: 2.21 ± 0.07
Glu43
  pKa: 4.32 ± 0.04
Glu73
  pKa: 3.31 ± 0.01
Glu142
  pKa: 4.49 ± 0.04
Asp95
  pKa: 2.16 ± 0.07
Asp40
  pKa: 3.87 ± 0.09
Asp143
  pKa: 3.8 ± 0.1
Glu135
  pKa: 3.76 ± 0.08
Asp77
  pKa: <2.2
Glu129
  pKa: 3.75 ± 0.09
Glu52
  pKa: 3.93 ± 0.08
Glu57
  pKa: 3.49 ± 0.09
Asp146
  pKa: 3.86 ± 0.05
Asp83
  pKa: <2.2
Asp21 [2]
  pKa: 6.53 ± 0.02
Glu10
  pKa: 2.82 ± 0.09
Glu75
  pKa: 3.26 ± 0.05
Glu67
  pKa: 3.76 ± 0.07
Glu101
  pKa: 3.81 ± 0.1

## Hen egg-white lysozyme (HEWL) (Gallus gallus)
Lys33
  pKa: 10.60 ± 0.10
Asp18
  pKa: 2.66 ± 0.08
Glu35
  pKa: 6.20 ± 0.10
Asp52
  pKa: 3.68 ± 0.08
Lys116
  pKa: 10.40 ± 0.10
Lys96
  pKa: 10.80 ± 0.10
Asp48
  pKa: 1.60 ± 0.4
Asp66
  pKa: 0.90 ± 0.5
Lys97
  pKa: 10.30 ± 0.10
Asp87
  pKa: 2.07 ± 0.15
Lys13
  pKa: 10.50 ± 0.10
Asp101
  pKa: 4.09 ± 0.07
Asp119
  pKa: 3.2 ± 0.09
Glu7
  pKa: 2.85 ± 0.25
